Measured values: patent US20140234868A1, “USE FOR GLYCOLIPOPROTEIN GINTONIN, ISOLATED AND IDENTIFIED FROM GINSENG, AS A NATURAL MEDICAL-PLANT DERIVED LIGAND” (KONKUK UNIVERSITY INDUSTRIAL COOPERATION CORP., priority 2011, published 2014)

Assays:
[1] = system: HUVECs; test: Scratch wound healing in HUVEC monolayers; assay type: cell-based, human; conditions: gintonin 30 μg/ml, 20 hrs
Procedure: In this Example, an examination was made of the effect of gintonin on wound healing. For use in this examination, HUVECs were cultured in an M199 medium supplemented with heat-inactivated 20% FBS, […] basic fibroblast growth factor, 5 units/ml heparin, and streptomycin and penicillin in a 5% […] incubator.
HUVECs (2.5×10^5/well) were seeded to 24-well plates, and incubated for 24 hrs, and then for an additional 6 hrs in M199 supplemented with 1% FBS. Single wounds were made in the confluent monolayers by dragging a sterile 200-μl pipette tip across the monolayer to create a cell-free path. Floating cells were washed off twice with M199 supplemented with 1% FBS. The adherent cells were incubated with gintonin (30 μg/ml). Before and after treatment with gintonin, HUVECs in each well were observed and photographed (100×) using an inverted fluorescence microscope (AxioVert200; Carl Zeiss, Germany). Morphological comparison with non-treated cells was made.
In the assay for wound healing of gintonin, uncovered wound areas were measured using AxioVision 4 (Carl Zeiss, Germany) (FIG. 26A), and the time process of covering the scratch wound areas was monitored in the presence or absence of gintonin (FIG. 25B). In addition, uncovered scratch areas of gintonin-treated groups were compared with that of the control and expressed as % of that of the control (FIGS. 26C and D).

[2] = molecular target: T1, GPR35 (Homo sapiens, UniProt Q9HC97); test: Intracellular free Ca2+ in GPR35-expressing B103 cells; assay type: cell-based
T1 construct: host or cells: B103 rat neuroblastoma cells
T1 sequence (Q9HC97 whole entry): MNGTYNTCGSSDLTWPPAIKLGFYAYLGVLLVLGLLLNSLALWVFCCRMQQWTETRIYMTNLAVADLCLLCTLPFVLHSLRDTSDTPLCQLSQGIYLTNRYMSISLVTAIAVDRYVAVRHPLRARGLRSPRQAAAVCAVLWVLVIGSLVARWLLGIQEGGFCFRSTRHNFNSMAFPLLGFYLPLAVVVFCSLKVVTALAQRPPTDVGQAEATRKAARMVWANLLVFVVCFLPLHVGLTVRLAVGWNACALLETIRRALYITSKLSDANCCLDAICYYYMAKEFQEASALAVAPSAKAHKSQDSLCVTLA
From the text: Optionally, the method may further comprise (8) pre-treating the suspended B103 cells with LPA receptor antagonists and LPA receptor-mediated signaling-relevant drugs (e.g., pertussis toxin, PLC inhibitors, IP3 receptor antagonists) to examine whether the cells decrease or increase in intracellular free Ca^2+, prior to treatment with gintonin; (9) performing site-directed mutagenesis to identify an amino acid of LPA receptors with which gintonin interact to activate the LPA; and (10) examining whether gintonin activates orphan GPCRs including GPR35 and GPR87, and free fatty acid GPCRs including GPR40, GPR41, GPR43 and GPR120, all known for activation by LPA.
In addition, GPR35 (Oka et al., Biochem Biophys Res Commun. 395, 232-237, 2010) and GPR87 (Tabata et al., Biochem Biophys Res Commun. 363, 861-866, 2007), both known as orphan GPCRs reacting with LPA, and GPR40, GPR41, GPR43 and GPR120 (Hirasawa et al., Biol Pharm Bull. 31, 1847-1851, 2008), all known as fatty acid receptors reacting with free fatty acids, were expressed in B103 cells when gintonin activity was tested.

[3] = molecular target: T2, mutant R3.28A LPA3 receptor (Homo sapiens, UniProt Q9UBY5, R105A); test: Intracellular Ca2+ in B103 cells with mutant R3.28A LPA3 receptor; assay type: cell-based; conditions: R3.28A LPA3 receptor-transfected B103 cells
T2 construct: expressed in transfected cells; host or cells: B103 rat neuroblastoma cells
T2 sequence (Q9UBY5 1-353 R105A): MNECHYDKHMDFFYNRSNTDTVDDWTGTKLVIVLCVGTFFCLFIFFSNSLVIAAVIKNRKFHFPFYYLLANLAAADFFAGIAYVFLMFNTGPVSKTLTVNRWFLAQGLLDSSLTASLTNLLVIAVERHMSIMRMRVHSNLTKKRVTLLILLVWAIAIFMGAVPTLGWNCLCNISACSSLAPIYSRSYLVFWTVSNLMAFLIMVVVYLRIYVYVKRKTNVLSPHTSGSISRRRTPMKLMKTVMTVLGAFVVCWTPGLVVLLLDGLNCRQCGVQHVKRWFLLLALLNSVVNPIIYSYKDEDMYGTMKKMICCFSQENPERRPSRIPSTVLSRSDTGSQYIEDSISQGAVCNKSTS
From the text: That is, LPA receptors have specific amino acid residues, known as binding sites, which are responsible for interaction with LPA, and the binding of LPA to the specific amino acids starts to exert the function. This Example was configured to examine a change in the gintonin-induced intracellular calcium increase through LPA receptor activation in LPA3 receptor-expressing cells when specific amino acids of the LPA binding site in LPA receptors were mutated.
To this end, a mutant LPA receptor in which Arg3.28, known as a common LPA binding site of LPA1-LPA3 receptors, was mutated as Arg3.28Ala (that is, Arg is substituted by Ala; R3.28A) or Trp4.64, known as an LPA-binding site of LPA3 receptor was mutated as Trp4.64Ala (that is, Tip is substituted by Ala; W4.64A) (Valentine et al., J. Biol. Chem. 283, 12175-12187, 2008) was transfected to B103 cells which were then tested for the action of gintonin, in comparison with cells transfected with the wild-type. […] From the result, it is henceforth understood that the gintonin-triggered LPA receptor activation is achieved by interaction with the LPA binding sites of LPA receptors and that gintonin occupies the LPA binding sites to activate LPA receptors.

B1: gintonin: ginseng-derived glycolipoprotein; structural protein of ginseng major latex-like protein (MLP151) and ribonuclease-like storage proteins; crude gintonin used in tests (protein)
chain 1: MGLTGKLICQTGIKSDGDVFHELFGTRPHHVPNITPANIQGCDLHEGEFGKVGSVVIWNYSIDGNAMIAKEEIVAIDEEDKSVTFKVVEGHLFEEFKSIVFSVHVDTKGEDNLVTWSIDYEKLNESVKDPTSYLDFLLSVTRDIEAHHLPK
chain 2: RSDYPWAMFALRLQWPAGFCEVNNACDTKSLLNTFTIHGLYPYNAKGTPALYCDGTAFDVNSVSDFLAEMHLAWPSHETNTEDIQFWEHEWKKHGRCSEALLKQTDYFRTALAFRKAFDIVGLLNQEGIYPNNDLYRPKMIKEAIKKHLNAVPEIDFTKNENSEYVLTDINVCVNQQATRFVDCPTDDATDDYRLKFVRLPSKMKFADPRTNSII
covering of scratch wound area [1]: covered the wound area
increase of intracellular calcium level [2]: increase an intracellular calcium level in GPR35-expressing B103 cells, but slightly
gintonin-induced intracellular calcium increase vs wild-type [3]: greatly reduced
